In patent US20160009768A1:

Target: elongation factor-2 (EF-2) (rabbit) (UniProt P55823)
Test: cell-based or functional assay

Substance | inhibition of transcription/translation of T7-luc plasmid in IVTT [%]
DT382 (G53E): Null construct (from UniProt P00587 26-406) (enzyme) | 20
wild type DT382 (from UniProt P00587 26-406) (enzyme) | 90
